Laboratory results reported in US20180155402A1 (Molecular Partners, published 2018).
Substitutions are numbered along the chain they refer to.

Tests used:
[1] = target: T1, HER2 on BT474 cells (human, UniProt P04626 23-1255); assay: cell-based or functional assay
[2] = target: T2, human HER2 (human, UniProt P04626 23-652, limits assumed); assay: SPR, global fit over several concentrations; Protein #21-His
T2 construct: This is HER2 as used in the surface plasmon resonance experiments; also called ErbB2; Human Epidermal Growth Factor Receptor 2
Method: (§1) Its affinity to HER2 was assessed by surface plasmon resonance as described in WO2014/083208.

[3] = target: T2, human HER2; assay: SPR, global fit over several concentrations; Protein #23-His
Method: as §1

[4] = target: T1, HER2 on BT474 cells; assay: cell-based or functional assay; remark: listed apart in the source
[5] = target: T3, human serum albumin (human, UniProt P02768 25-609); assay: SPR; Protein #21 at 100 nM
T3 construct: also called HSA

[6] = target: T4, extracellular domain of EGFR (UniProt P00533 25-645); assay: surface plasmon resonance
T4 construct: extracellular domain; also called ErbB1; HER1

[7] = target: T5, extracellular domain of HER3 (UniProt P21860 20-643); assay: surface plasmon resonance
T5 construct: extracellular domain; also called ErbB3

[8] = target: T3, human serum albumin; assay: ProteOn SPR, PBS pH 7.4
[9] = target: cynomolgus monkey serum albumin (cynomolgus monkey, UniProt A2V9Z4 25-608); assay: ProteOn SPR, PBS pH 7.4
[10] = target: mouse serum albumin (mouse, UniProt P07724 25-608); assay: ProteOn SPR, PBS pH 7.4
[11] = target: T2, human HER2; assay: SPR

cynomolgus monkey serum albumin, sequence (A2V9Z4 25-608 limits assumed): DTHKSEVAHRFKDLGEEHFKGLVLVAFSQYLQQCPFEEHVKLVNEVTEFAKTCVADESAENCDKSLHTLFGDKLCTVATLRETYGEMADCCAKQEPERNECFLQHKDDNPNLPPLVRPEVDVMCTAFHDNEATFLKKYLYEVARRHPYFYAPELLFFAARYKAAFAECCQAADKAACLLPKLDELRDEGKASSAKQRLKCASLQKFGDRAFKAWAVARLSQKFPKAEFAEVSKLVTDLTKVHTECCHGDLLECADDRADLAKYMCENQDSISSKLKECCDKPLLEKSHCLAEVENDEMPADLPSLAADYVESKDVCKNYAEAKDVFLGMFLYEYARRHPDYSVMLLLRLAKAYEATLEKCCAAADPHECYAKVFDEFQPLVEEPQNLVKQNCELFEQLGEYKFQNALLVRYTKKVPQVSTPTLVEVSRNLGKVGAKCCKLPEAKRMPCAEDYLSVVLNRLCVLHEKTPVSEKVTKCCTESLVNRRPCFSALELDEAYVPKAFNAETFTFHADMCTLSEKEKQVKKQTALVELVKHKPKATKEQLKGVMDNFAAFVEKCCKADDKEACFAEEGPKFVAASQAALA
mouse serum albumin, sequence (P07724 25-608 limits assumed): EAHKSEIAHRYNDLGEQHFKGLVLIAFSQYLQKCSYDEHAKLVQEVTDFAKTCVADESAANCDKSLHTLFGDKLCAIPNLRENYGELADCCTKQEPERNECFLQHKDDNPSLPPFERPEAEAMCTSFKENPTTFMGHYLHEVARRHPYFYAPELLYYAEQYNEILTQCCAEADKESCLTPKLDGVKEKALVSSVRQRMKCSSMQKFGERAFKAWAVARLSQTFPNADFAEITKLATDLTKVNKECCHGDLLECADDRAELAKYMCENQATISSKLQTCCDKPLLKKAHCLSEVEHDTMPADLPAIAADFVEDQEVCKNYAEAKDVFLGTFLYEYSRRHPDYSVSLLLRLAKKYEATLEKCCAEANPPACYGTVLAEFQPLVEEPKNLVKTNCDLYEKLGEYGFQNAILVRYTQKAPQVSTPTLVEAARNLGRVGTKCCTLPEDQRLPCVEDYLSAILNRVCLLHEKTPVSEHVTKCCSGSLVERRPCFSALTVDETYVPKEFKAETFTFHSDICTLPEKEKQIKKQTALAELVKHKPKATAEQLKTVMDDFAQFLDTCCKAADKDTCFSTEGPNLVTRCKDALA

B1: Protein #21-His (designed binder)
chain: MRGSHHHHHHGSDLGKKLLEAARAGQDDEVRELLKAGADVNAKDYFSHTPLHLAARNGHLKIVEVLLKAGADVNAKDFAGKTPLHLAANEGHLEIVEVLLKAGADVNAQDIFGKTPADIAADAGHEDIAEVLQKAAGSPTPTPTTPTPTPTTPTPTPTGSDLGIKLLFAAAKGQDDEVRELLKAGADVNAKDFQGVTPLHIAAQSGHLEIVEVLLKAGADVNAKDVTGDTPLHLAAQHGHLEIVEVLLKAGADVNAQDERGWTPADLAADWGHEDIAEVLQKAAGSPTPTPTTPTPTPTTPTPTPTGSDLGKKLLEAARAGQDDEVRELLKAGADVNAKDEYGLTPLYLATAHGHLEIVEVLLKAGADVNAVDAIGFTPLHLAAFIGHLEIAEVLLKAGADVNAQDKFGKTPADIAAGAGNEDIAEVLQKAAGSPTPTPTTPTPTPTTPTPTPTGSDLGKKLLEAARAGQDDEVRELLKAGADVNAKDYFSHTPLHLAARNGHLKIVEVLLKAGADVNAKDFAGKTPLHLAANEGHLEIVEVLLKAGADVNAQDIFGKTPADIAADAGHEDIAEVLQKAA
notes: also called Protein #31-His
IC50, inhibition of BT474 cell proliferation (BrdU) [1]: 1.5 nM | Kd [2]: 0.027 nM

B2: Protein #23-His (designed binder)
chain: MRGSHHHHHHGSDLGKKLLEAARAGQDDEVRELLKAGADVNAKDYFSHTPLHLAARNGHLKIVEVLLKAGADVNAKDFAGKTPLHLAANEGHLEIVEVLLKAGADVNAQDIFGKTPADIAADAGHEDIAEVLQKAAGSPTPTPTTPTPTPTTPTPTPTGSDLGVKLLWAAARGQDDEVRELLKAGADVNAKDFQGITPLHIAATNGHLEIVEVLLKAGADVNAKDITGETPLHHAADSGHLEIVEVLLKAGADVNAQDKAGVTPADLAAAWGHEDIAEVLQKAAGSPTPTPTTPTPTPTTPTPTPTGSDLGKKLLEAARAGQDDEVRELLKAGADVNAKDEYGLTPLYLATAHGHLEIVEVLLKAGADVNAVDAIGFTPLHLAAFIGHLEIAEVLLKAGADVNAQDKFGKTPADIAAGAGNEDIAEVLQKAAGSPTPTPTTPTPTPTTPTPTPTGSDLGKKLLEAARAGQDDEVRELLKAGADVNAKDYFSHTPLHLAARNGHLKIVEVLLKAGADVNAKDFAGKTPLHLAANEGHLEIVEVLLKAGADVNAQDIFGKTPADIAADAGHEDIAEVLQKAA
Kd [3]: 0.064 nM | IC50, inhibition of BT474 cell proliferation (BrdU) [1]: 2.4 nM

B3: Protein #21 (designed binder)
chain: GSDLGKKLLEAARAGQDDEVRELLKAGADVNAKDYFSHTPLHLAARNGHLKIVEVLLKAGADVNAKDFAGKTPLHLAANEGHLEIVEVLLKAGADVNAQDIFGKTPADIAADAGHEDIAEVLQKAAGSPTPTPTTPTPTPTTPTPTPTGSDLGIKLLFAAAKGQDDEVRELLKAGADVNAKDFQGVTPLHIAAQSGHLEIVEVLLKAGADVNAKDVTGDTPLHLAAQHGHLEIVEVLLKAGADVNAQDERGWTPADLAADWGHEDIAEVLQKAAGSPTPTPTTPTPTPTTPTPTPTGSDLGKKLLEAARAGQDDEVRELLKAGADVNAKDEYGLTPLYLATAHGHLEIVEVLLKAGADVNAVDAIGFTPLHLAAFIGHLEIAEVLLKAGADVNAQDKFGKTPADIAAGAGNEDIAEVLQKAAGSPTPTPTTPTPTPTTPTPTPTGSDLGKKLLEAARAGQDDEVRELLKAGADVNAKDYFSHTPLHLAARNGHLKIVEVLLKAGADVNAKDFAGKTPLHLAANEGHLEIVEVLLKAGADVNAQDIFGKTPADIAADAGHEDIAEVLQKAA
notes: Untagged
EC50, induction of apoptosis in BT474 cells (Caspase 3/7 activation) [1]: 2.4 nM | phosphorylation AKT S124, fold change to PBS (mass spectrometry) [4]: 0.99 fold change to PBS | phosphorylation AKT S129, fold change to PBS (mass spectrometry) [4]: 0.93 fold change to PBS | phosphorylation RAF S642, fold change to PBS (mass spectrometry) [4]: 0.81 fold change to PBS | phosphorylation RAF T631/T638/T640/T641/S642, fold change to PBS (mass spectrometry) [4]: 0.48 fold change to PBS | phosphorylation RPS6KB1/S6Kinase S441/T444/S447, fold change to PBS (mass spectrometry) [4]: 0.63 fold change to PBS | phosphorylation RPS6KB1/S6Kinase T444/S447, fold change to PBS (mass spectrometry) [4]: 0.92 fold change to PBS | phosphorylation mTOR S2448/S2454, fold change to PBS (mass spectrometry) [4]: 0.79 fold change to PBS | Kd [5]: 21 nM | binding result [6]: no binding | binding result [7]: no binding

B4: Protein #14-His (designed binder)
chain: MRGSHHHHHHGSDLGKKLLEAARAGQDDEVRELLKAGADVNAKDYFSHTPLHLAARNGHLKIVEVLLKAGADVNAKDFAGKTPLHLAANEGHLEIVEVLLKAGADVNAQDIFGKTPADIAADAGHEDIAEVLQKAA
Kd [8]: < 100 nM | Kd [9]: < 100 nM | Kd [10]: < 100 nM

B5: Protein #13-His (designed binder)
chain: B4 chain with E90D
Kd [8]: < 100 nM | Kd [9]: < 100 nM | Kd [10]: < 100 nM

B6: Protein #17-His (designed binder)
chain: MRGSHHHHHHGSDLGKKLLEAARAGQDDEVRELLKAGADVNAKDEYGLTPLYLATAHGHLEIVEVLLKAGADVNAVDAIGFTPLHLAAFIGHLEIAEVLLKAGADVNAQDKFGKTPADIAAGAGNEDIAEVLQKAA
Kd [11]: 0.152 nM

B7: Protein #16-His (designed binder)
chain: MRGSHHHHHHGSDLGIKLLFAAAKGQDDEVRELLKAGADVNAKDFQGVTPLHIAAQSGHLEIVEVLLKAGADVNAKDVTGDTPLHLAAQHGHLEIVEVLLKAGADVNAQDERGWTPADLAADWGHEDIAEVLQKAA
Kd [11]: 0.009 nM
